To fix the notation:
B1: Azoarcus group I ribozyme (parent)
chain: GUGCCUUGCGCCGGGAAACCACGCAAGGGAUGGUGUCAAAUUCGGCGAAACCUAAGCGCCCGCCCGGGCGUAUGGCAACGCCGAGCCAAGCUUCGGCGCCUGCGCCGAUGAAGGUGUAGAGACUAGACGGCACCCACCUAAGGCAAACGCUAUGGUGAAGGCAUAGUCCAGGGAGUGGCGAAAGUCACACAAACCGG

The source of these data is the RNAGym collection of RNA variant scans (doi:10.1093/molbev/msab373).

In this data set the parent is B1. Nature of the data set: reverse-splicing fitness (ratio to wild type); higher = more active; in vitro selection; Mg2+ level not given. The procedure, abridged: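 An in vitro group I ribozyme library with randomized positions was T7-transcribed and gel-purified. In triplicate, 10 pmol RNA in EPPS pH 7.5 was reacted with 50 pmoles of a 30-nt RNA substrate for 1 h at 37 °C across several added MgCl2 levels (1–48 mM), then stopped with EDTA. Products were reverse transcribed from a substrate-complementary primer, PCR-amplified and sequenced (HiSeq 4000). Fitness is a variant's read proportion after selection over that before, normalised to wild type.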
In the case of A120U C150G C169A U176G, the reverse-splicing fitness came to 0.00242. With A120U C150G C169A U176C, the reverse-splicing fitness worked out at 0.00332. Next, A120U C150G C169A U176A: 0.00468; A120U C150U C169G U176A: 0.0257; A120U C150U C169G U176C: 0.0569. With A120U C150U C169G U176G, the reverse-splicing fitness was 0.00278. For A145U C150G C169G U176A, the reverse-splicing fitness amounted to 0.0118. With A145U C150G C169G U176C, the reverse-splicing fitness was 0.00868.

Take A145U C150G C169G U176G: the reverse-splicing fitness came to 0.00509. With A120U C150A C169U the figure was 0.038. As for A120U C150A C169A, the reverse-splicing fitness came to 0.00484. With A120U C150A C169G the figure was 0.0291; with A145G C150U C169A U176C, 0.0527.

For A145G C150U C169A U176A, the reverse-splicing fitness was 0.0281.

As to A145G C150U C169A U176G, the reverse-splicing fitness was 0.00628. Regarding A145U C150A C169A, the reverse-splicing fitness is 0.0212. Next, A145U C150A C169U: 0.0521. Take A145U C150A C169G: the reverse-splicing fitness stood at 0.0369. With A145U C150A C169U U176A the figure was 0.031; with A145U C150A C169U U176C, 0.0345. Next, A145U C150A C169U U176G: 0.00699.

For the variant A145G C169U U176C, the reverse-splicing fitness is 0.174. Next, A145G C169U U176G: 0.0104. With A145G C169U U176A the figure was 0.123.

In the case of A145C C150G C169A, the reverse-splicing fitness came to 0.0221. For A145C C150G C169G, the reverse-splicing fitness was determined as 0.0445.

Regarding A145C C150G C169U, the reverse-splicing fitness turned out to be 0.0739. A145U C169A: the reverse-splicing fitness was 0.173. With A145U C169G the figure was 0.3; with A145U C169U, 0.407; with A145U C150U C169A, 0.106. Consider A145U C150U C169G, for which the reverse-splicing fitness was found to be 0.215.

As to A145U C150U C169U, the reverse-splicing fitness worked out at 0.312.

On to A120U C150G C169G, for which the reverse-splicing fitness came out at 0.0252. Turning to A120U C150G C169U, the reverse-splicing fitness was determined as 0.0339. Next, A120U C150G C169A: 0.00834; A145G C150U U176A: 0.844.

Turning to A145G C150U U176G, the reverse-splicing fitness was determined as 0.308.

As to A145G C150U U176C, the reverse-splicing fitness came to 0.821.

Turning to A120U C169G U176G, the reverse-splicing fitness is 0.00332. Next, A120U C169G U176C: 0.0915; A120U C169G U176A: 0.0354; A120U A145U C150A C169U U176A: 0.0134. Next, A120U A145U C150A C169U U176G: 0.00399; A120U A145U C150A C169U U176C: 0.015; A120U A145U C150G C169U U176G: 0.00288. With A120U A145U C150G C169U U176C the figure was 0.0175; with A120U A145U C150G C169U U176A, 0.00679; with A145G C169U, 0.369. Regarding A145G C169G, the reverse-splicing fitness is 0.302. Next, A145G C169A: 0.172; A145G C150U: 0.93. With A145G C150A the figure was 0.582; with A145G C150G, 0.48.

As for A145C C169G U176A, the reverse-splicing fitness turned out to be 0.0744. Next, A145C C169G U176G: 0.00875. Next, A145C C169G U176C: 0.116; A145C C150A C169A U176G: 0.00533.

Turning to A145C C150A C169A U176A, the reverse-splicing fitness is 0.0107. For A145C C150A C169A U176C, the reverse-splicing fitness came out at 0.00805. Turning to A145C U176A, the reverse-splicing fitness is 0.767. Next, A145C U176G: 0.411; A145C U176C: 0.843. With A145U C150U C169A U176G the figure was 0.00551; with A145U C150U C169A U176A, 0.0236; with A145U C150U C169A U176C, 0.04. On to A145G C150G C169U, for which the reverse-splicing fitness was found to be 0.0734. Regarding A145G C150G C169A, the reverse-splicing fitness amounted to 0.0272. With A145G C150G C169G the figure was 0.0446; with A145G C150U C169U U176G, 0.00803.

Consider A145G C150U C169U U176A, for which the reverse-splicing fitness amounted to 0.113. With A145G C150U C169U U176C the figure was 0.149; with A120U A145U C150U U176G, 0.206; with A120U A145U C150U U176C, 0.552. As to A120U A145U C150U U176A, the reverse-splicing fitness was 0.608.

Regarding A120U C169A U176G, the reverse-splicing fitness was determined as 0.00204. Consider A120U C169A U176C, for which the reverse-splicing fitness came to 0.00594. In the case of A120U C169A U176A, the reverse-splicing fitness amounted to 0.00399. Next, A120U A145U C150A U176C: 0.141. With A120U A145U C150A U176A the figure was 0.151; with A120U A145U C150A U176G, 0.0665. Next, A120U C150A C169G U176A: 0.0106. Consider A120U C150A C169G U176G, for which the reverse-splicing fitness was found to be 0.00249. Next, A120U C150A C169G U176C: 0.0141.
